In patent US20130177528A1, “COMPOSITIONS AND METHODS FOR INHIBITING VIRAL INFECTION” (WESTERN UNIVERSITY OF HEALTH SCIENCES, priority 2011, published 2013):

How the values were obtained:
HSV-1 (KOS) gL86 = assay: HSV-1 entry into natural target cells (HeLa, human corneal fibroblasts), cells pre-incubated with CN (Example 9); type: cell-based, herpes simplex virus type-1; conditions: for HSV-1 entry (β-galactosidase activity, OD 410): 25 pfu/cell, 6 h
Description: In this experiment (A) HeLa and (B) primary cultures of human corneal fibroblasts (CF) were used. They were either pre-treated with contortrostatin (CN) at indicated concentrations or mock-treated (positive control [+]) with phosphate saline buffer for 90 min at room temperature. β-galactosidase-expressing recombinant virus herpes simplex virus type-1 (HSV-1; KOS) gL86 (25 pfu/cell) was used to infect cells. Uninfected cells were kept as negative control (−). After 6 h, the cells were washed, permeabilized and incubated with […] expressed from the input viral genome. The enzymatic activity was measured at an optical density of 410 nm (OD 410). Error bars represent SD. a=significant difference from controls and/or treatments (P<0.05, t-test).
To confirm blocking activity of CN on HSY-I entry, HeLa and primary cultures of human CF were used. It has been shown that HeLa and human CF naturally express gD receptors. […] This raises the possibility that the effect of CN can be more pronounced in the natural target cells and that it may not depend on gD receptors. […] The inhibitory effect is likely dependent on the type of integrins expressed on the surface of cells.

[1] = tested on: HSV-1 glycoproteins (gB, gD, gH-gL) mediated cell-to-cell fusion; assay: Virus-free HSV-1 glycoprotein-mediated cell-to-cell fusion assay (Example 12); type: cell-based, human
Description: FIG. 15A-B show the inhibition of HSV-1 glycoprotein-induced cell-to-cell fusion by CN and proposed model for CN-based anti-HSV-1 activity during cell entry. (A) In this experiment the naturally susceptible target human corneal fibroblasts (CF) cells expressing gD-receptors and luciferase gene were pre-incubated with 1 μM contortrostatin (CN) and mixed in 1:1 ratio with the effector Chinese hamster ovary (CHO-K1) cells expressing herpes simplex virus type-1 (HSV-1) glycoproteins (gB, gD, gH-gL) along with T7 plasmid (white bar indicated as treated [Tr]). In parallel, CN-untreated CF cells were similarly mixed with effector cells as positive control (+; black bar). The target CF cells co-cultured with effector cells devoid of HSV-1 glycoproteins were considered as negative control (−; grey bar). Membrane fusion as a means of viral spread was detected by monitoring luciferase activity. Relative luciferase units (RLUs) were determined using a Sirius luminometer (Berthoid Detection Systems, Titertek Instruments, Inc., Huntsville, Ala., USA). Error bars represent SD. (B) A cartoon illustrates the CN-mediated HSV-1 inhibition that might affect three major steps (a-c) that are involved during HSV-1 entry. (a) CN (presented by hatching) binding to host cell surface integrin (presented by α and β subunits) may affect HSV -1 glycoprotein H (gH) binding to integrins. […]

CMV Ad169 = assay: CMV plaque assay in RPE cells (Example 5); type: cell-based, Cytomegalovirus; conditions: virus pre-incubated with 1 mg/ml for 120 min, MOI 0.01, 3 days
Description: Viral plaque assay. Confluent layers of RPE cells in glass bottom dishes were infected with CMV Ad169 strain in the presence and absence of CN at 0.01 PFU per cell for 2 hrs. This was followed by extensive but gentle washing three times with DMEM media followed by feeding cells with DMEM media. The cells were then incubated at 37° C. for thee days. Cells were then fixed using fixative buffer after 3 days for 30-45 min. The cells were washed three times with 1X PBS before RPE cells stained for Giemsa satin for additional 45 minutes. This was followed by 10 times washing with 1 X PBS to remove excess stain. The number of plaques formed were then visualized and quantified as indicated. In another protocol, confluent layers of HeLa cells (approximately 10^6) in six-well dishes were infected with HSV-1 (804) strain at 0.01 PFU/celI in presence and absence of CN for 2 h at 37° C. After removal of inoculum, monolayers were overlaid with DMEM comaining 2.5% heat-inactivated calf serum and incubated at 37° C. At 24 h, the cells were fixed by using fixative buffer (2% formaldehyde and 0.2% glutaradehyde) at room temperature for 20 min, followed by Giemsa staining for 45 min. The cells were again washed 5× in PBS and the numbers of plaques were counted. The images were taken by using Nikon D-Eclipse-C1 microscope (Nikon Instruments Inc., Melville, N.Y., USA).
A wild type strain of CMV Ad169 was used. The virus was again either pre-incubated with 1×PBS (control) or with CN at 1 mg/ml for 120 min at room temperature. After 120 min of incubation the two pools of viruses were incubated on target retinal pigment epithelial (RPE) cells at MOI (multiplicity of infection; MOI) of 0.01 for additional 2 hrs at 37° C. This was followed by washing to remove unbound viruses and feeding cells with fresh DMEM media. The plates were kept for 3 days before the plaque formation was visually observed (upper panels) and quantified (lower panel) after fixing cells with buffer (FIG. 9). […] Based on visual evidence, the plaque formation was quantified in each group and was scored (lower panel).

B1: contortrostatin (protein)
chain: DAPANPCCDAATCKLTTGSQCADGLCCDQCKFMKEGTVCRRARGDDLDDYCNGISAGCPRNPFHA
For B1, the “HSV-1 entry (β-galactosidase activity, OD 410)” value (HSV-1 (KOS) gL86; HeLa cells pre-incubated 90 min) was “significant blocking of HSV-1 entry”, the “concentration at which strong inhibition of entry was observed” value (HSV-1 (KOS) gL86; natural target cells (HeLa and CF)) was less than 1 µM and the “HSV-1 entry (β-galactosidase activity, OD 410)” value (HSV-1 (KOS) gL86; primary human corneal fibroblasts (CF) pre-incubated 90 min) was “significant blocking of HSV-1 entry”. The polykaryocyte formation ([1]; CN-treated target cells co-cultured with effector cells, data not shown) was “failed to form polykaryons”, the “cell-to-cell fusion (luciferase activity, RLU)” value ([1]; target human CF treated with 1 μM, effector CHO-K1 cells expressing gB, gD, gH-gL, 1:1) was “impaired cell-to-cell fusion” and the “CMV cytopathic effect (CPE)” value (CMV Ad169) was “significantly lower cytopathic effect”. For the same molecule, the CMV plaque formation (CMV Ad169) was “significantly reduced the plaque formation” and the “size of CMV plaques” value (CMV Ad169) was “small compared to untreated CMV virions”.
